Assay results reported in patent US20260049279A1 (published 2026).

Target: T1, ALK peptide on H-2Dd (mouse)
T1 peptide: PGPGRVAKI
Assay: multimer staining

B1: Clonotype_1 (Table 1) (TCR, V domains shown)
Valpha: QQKVQQSPESLSVPEGGMASFNCTSSDRNFQYFWWYRQHSGEGPKALMSIFSDGDKKEGRFTAHLNKASLHVSLHIRDSQPSDSALYFCAASEHGNNRIFFGDGTQLVVKP
Vbeta: ETAVFQTPNYHVTQVGNEVSFNCKQTLGHDTMYWYKQDSKKLLKIMFSYNNKQLIVNETVPRRFSPQSSDKAHLNLRIKSVEPEDSAVYLCASSQDWDEQYFGPGTRLTVL
Does B1 bind?
Result: recognises
